T1: human C1s mutant M13 (A292D) (human, UniProt P09871 16-688)
T1 construct: The entry is the mutant itself
T1 sequence: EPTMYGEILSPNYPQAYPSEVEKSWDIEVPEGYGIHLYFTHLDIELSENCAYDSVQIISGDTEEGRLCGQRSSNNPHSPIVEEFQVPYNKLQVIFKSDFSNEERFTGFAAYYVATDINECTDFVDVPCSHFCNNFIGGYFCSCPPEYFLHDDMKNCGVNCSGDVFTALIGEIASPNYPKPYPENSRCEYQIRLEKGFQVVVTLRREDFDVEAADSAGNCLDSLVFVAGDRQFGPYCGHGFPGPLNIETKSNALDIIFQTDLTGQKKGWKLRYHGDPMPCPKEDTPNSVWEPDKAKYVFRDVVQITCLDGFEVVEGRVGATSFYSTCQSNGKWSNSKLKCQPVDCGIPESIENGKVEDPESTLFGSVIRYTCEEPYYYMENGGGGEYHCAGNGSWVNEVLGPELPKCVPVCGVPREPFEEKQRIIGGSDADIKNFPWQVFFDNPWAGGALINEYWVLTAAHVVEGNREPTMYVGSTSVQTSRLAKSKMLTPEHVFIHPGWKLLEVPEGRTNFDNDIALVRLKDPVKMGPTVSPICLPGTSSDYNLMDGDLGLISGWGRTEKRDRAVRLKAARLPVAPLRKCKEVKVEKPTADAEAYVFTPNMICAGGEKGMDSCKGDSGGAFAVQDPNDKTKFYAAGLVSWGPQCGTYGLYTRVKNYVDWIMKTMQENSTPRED

T2: human C1s mutant M4 (P280A & E282K) (human, UniProt P09871 16-688)
T2 construct: The entry is the mutant itself
T2 sequence: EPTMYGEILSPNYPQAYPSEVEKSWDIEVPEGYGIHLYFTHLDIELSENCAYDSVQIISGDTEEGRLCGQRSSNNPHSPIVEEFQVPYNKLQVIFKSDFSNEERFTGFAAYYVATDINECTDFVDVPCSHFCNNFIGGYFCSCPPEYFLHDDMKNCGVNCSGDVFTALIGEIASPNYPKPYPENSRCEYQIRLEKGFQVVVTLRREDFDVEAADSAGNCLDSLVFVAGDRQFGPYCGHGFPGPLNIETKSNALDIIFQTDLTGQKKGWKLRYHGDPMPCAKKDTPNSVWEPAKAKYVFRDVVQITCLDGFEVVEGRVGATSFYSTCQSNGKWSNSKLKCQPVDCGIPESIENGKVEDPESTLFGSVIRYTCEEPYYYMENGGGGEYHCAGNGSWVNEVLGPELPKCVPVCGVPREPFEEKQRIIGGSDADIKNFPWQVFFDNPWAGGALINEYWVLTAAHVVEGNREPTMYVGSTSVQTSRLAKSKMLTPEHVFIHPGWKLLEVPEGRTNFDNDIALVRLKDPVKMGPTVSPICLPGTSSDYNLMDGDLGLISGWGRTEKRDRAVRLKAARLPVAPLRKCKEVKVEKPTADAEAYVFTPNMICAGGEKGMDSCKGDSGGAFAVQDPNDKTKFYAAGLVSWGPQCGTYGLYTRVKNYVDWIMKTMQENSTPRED


Key:
[1] = molecular target: T1, human C1s mutant M13 (A292D); assay: ELISA, plate coated with human C1s mutant M13: A292D, OD450nm
Procedure: (§1) ELISA was carried out by first coating 96-well plates with 200 ng/well of full-length or truncated C1s proteins overnight. The next morning, plates were blocked with SuperBlock T20 blocking buffer (Thermo Scientific 37536) for 1 h with gentle shaking. Then, various concentrations of anti-C1s antibodies diluted in SuperBlock T20 blocking buffer were added to the plates and incubated for 1 h with gentle shaking. Mouse IgG (Sigma-Aldrich 15381) and human IgG1 (BioXCell BP0297) were used as negative controls. The plates were washed before incubating with HRP conjugated secondary antibodies diluted in SuperBlock T20 blocking buffer (goat anti-mouse IgG (H+L) cross-adsorbed secondary antibody HRP (Invitrogen G-21040) or goat anti-human IgG antibody, HRP conjugate (Millipore AP309P)) for 1 h with gentle shaking. At last, the plates were washed and color developed with ELISA liquid HRP substrate (Sigma-Aldrich), followed by stopping the reaction with addition of 1M H₂SO₄ in the same volume as the ELISA liquid substrate. Bound antibody was measured by absorbance at OD₄₅₀ₙₘ.
(§2) Binding of anti-C1s antibodies to mutants M1-M20 of human C1s was measured by ELISA as described in Example 4, and results are shown in FIGS. 6B-6U. All anti-C1s humanized variants including hz2-7(H1L2), hz2-8(H1L2 G80A) and hz2-8(H1L2 G80A/T82A) maintained strong binding properties to the majority (16 out of 20) of C1s mutants including M1 (FIG. 6B), M2 (FIG. 6C), M3 (FIG. 6D). M4 (FIG. 6E), M7 (FIG. 6H), M8 (FIG. 6I), M10 (FIG. 6K), M11 (FIG. 6L), M12 (FIG. 6M), M13 (FIG. 6N), M15 (FIG. 6P), M16 (FIG. 6Q), M17 (FIG. 6R), M18 (FIG. 6S), M19 (FIG. 6T) and M20 (FIG. 6U).

[2] = molecular target: T2, human C1s mutant M4 (P280A & E282K); assay: ELISA, plate coated with human C1s mutant M4: P280A, E282K, OD450nm
Procedure: as §1, §2

| EC50 [1] | EC50 [2] | Binder |
| --- | --- | --- |
| 6 ng/mL | 10 ng/mL | Anti-C1s antibody hz2-8 (H1L2 G80A) (antibody, V domains shown, Humanized variant with G80A in HC CDR2 (already in the entry), human IgG1 / kappa) VH: QVQLVQSGAEVKKPGASVKVSCKASGFNIKEYYMHWVRQAPEQGLEWMGWIDPENADTIYAQKFQGRVTITADTSTNTAYMELSSLRSEDTAVYYCARSRLFFAYWGQGTLVTVSS VL: DIQMTQSPKSLSASVGDRVTITCRASQDVRTALDWYQQKPGQSPKLLIYSASYRYSGVPSRFSGSGSGTDFTLTISSLQPEDFATYYCQQQYTTPYTFGQGTKLEIKR |
| 9 ng/mL | 10 ng/mL | Anti-C1s antibody hz2-8 (H1L2 G80A/T82A) (antibody, V domains shown, Humanized variant with G80A and T82A in HC CDR2 (already in the entry), human IgG1 / kappa) VH: QVQLVQSGAEVKKPGASVKVSCKASGFNIKEYYMHWVRQAPEQGLEWMGWIDPENADAIYAQKFQGRVTITADTSTNTAYMELSSLRSEDTAVYYCARSRLFFAYWGQGTLVTVSS VL: DIQMTQSPKSLSASVGDRVTITCRASQDVRTALDWYQQKPGQSPKLLIYSASYRYSGVPSRFSGSGSGTDFTLTISSLQPEDFATYYCQQQYTTPYTFGQGTKLEIKR |
| 5 ng/mL | 13 ng/mL | Anti-C1s antibody hz2-7(H1L2) (antibody, V domains shown, Humanized, human IgG1 / kappa; also called hz2-7(1L2)) VH: EVQLLESGGGLVQPGGSLRLSCAASGFTFSNYFMNWVRQAPGKGLEWVSEIRLKFTNYATHYADSVKGRFTISRDDSKSTLYLQMNSLRAEDTAVYYCTRDYGSRNGYFDYWGQGTLVTVSS VL: DIVMTQTPLSLPVTPGEPASISCRSSKSLLHSNGNTFLYWFLQKPGQSPQLLIYRMSNLASGVPDRFSGSGSGTDFTLKISRVEAEDVGVYYCMQHLEYPYTFGGGTKLEIKR |
